The results in this text go back to patent publication US20240376224A1 (University of California, published 2024).

Assay [1] concerns the target T1, cleaved human CDCP1 on the cell surface (endogenous, PDAC cells) (human) (UniProt Q9H5V8).
T1 sequence 1: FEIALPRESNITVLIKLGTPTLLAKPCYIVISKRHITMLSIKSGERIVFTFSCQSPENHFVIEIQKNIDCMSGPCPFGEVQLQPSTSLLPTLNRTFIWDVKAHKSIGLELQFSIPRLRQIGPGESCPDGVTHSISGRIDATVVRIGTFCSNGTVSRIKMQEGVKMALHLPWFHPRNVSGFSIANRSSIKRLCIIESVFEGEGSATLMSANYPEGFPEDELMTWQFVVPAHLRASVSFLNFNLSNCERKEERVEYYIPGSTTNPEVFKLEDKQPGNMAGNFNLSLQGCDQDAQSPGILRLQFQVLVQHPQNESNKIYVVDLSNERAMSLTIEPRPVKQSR
T1 sequence 2: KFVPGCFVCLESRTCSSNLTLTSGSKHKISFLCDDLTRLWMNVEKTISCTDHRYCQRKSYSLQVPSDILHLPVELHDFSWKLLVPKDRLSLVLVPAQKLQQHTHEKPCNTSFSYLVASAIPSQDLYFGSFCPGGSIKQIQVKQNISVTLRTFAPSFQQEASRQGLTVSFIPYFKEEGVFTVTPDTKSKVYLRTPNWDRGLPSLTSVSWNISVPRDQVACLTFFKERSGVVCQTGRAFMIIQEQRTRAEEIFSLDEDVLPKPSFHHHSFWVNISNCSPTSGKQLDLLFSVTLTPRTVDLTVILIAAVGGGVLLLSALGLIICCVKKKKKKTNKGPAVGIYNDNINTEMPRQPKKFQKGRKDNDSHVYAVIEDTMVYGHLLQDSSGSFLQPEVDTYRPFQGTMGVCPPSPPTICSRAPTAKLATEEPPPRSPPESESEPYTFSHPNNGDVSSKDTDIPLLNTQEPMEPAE
In words: dose-response flow cytometry on PL45 cells; PL45 cells.

Assay [2] deals with T2, mouse fl-CDCP1 (recombinant uncleaved mouse CDCP1) (mouse, UniProt Q5U462 30-666).
T2 construct: The mouse antigen made was fl-CDCP1-Fc; also called mouse fl-CDCP1-Fc
T2 sequence: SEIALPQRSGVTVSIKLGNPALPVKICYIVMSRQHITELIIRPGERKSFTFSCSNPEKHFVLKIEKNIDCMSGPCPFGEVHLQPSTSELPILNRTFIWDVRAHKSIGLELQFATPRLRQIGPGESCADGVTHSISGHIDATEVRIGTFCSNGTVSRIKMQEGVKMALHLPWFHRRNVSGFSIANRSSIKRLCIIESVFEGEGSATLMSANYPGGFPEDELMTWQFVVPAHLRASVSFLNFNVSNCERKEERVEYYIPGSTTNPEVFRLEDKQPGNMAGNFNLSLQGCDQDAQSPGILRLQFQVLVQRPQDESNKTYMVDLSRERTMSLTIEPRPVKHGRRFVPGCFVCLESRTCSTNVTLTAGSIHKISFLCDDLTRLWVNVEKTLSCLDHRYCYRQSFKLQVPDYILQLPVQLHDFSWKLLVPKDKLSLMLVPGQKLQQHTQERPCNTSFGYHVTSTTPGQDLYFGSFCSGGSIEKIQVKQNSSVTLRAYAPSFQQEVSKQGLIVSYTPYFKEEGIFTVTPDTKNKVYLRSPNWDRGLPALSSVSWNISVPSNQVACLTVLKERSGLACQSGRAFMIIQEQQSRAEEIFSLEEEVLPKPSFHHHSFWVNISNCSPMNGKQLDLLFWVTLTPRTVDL
In words: BLI (Octet), mouse fl-CDCP1-Fc on the sensor, IgG CL03 as analyte. In general terms: BLI is a label-free optical method that tracks binding on a fibre tip over time.

For assay [3], the target named is T3, soluble CUB1 (NTF) used as competitor (human, UniProt Q9H5V8 30-367, limits assumed).
T3 sequence: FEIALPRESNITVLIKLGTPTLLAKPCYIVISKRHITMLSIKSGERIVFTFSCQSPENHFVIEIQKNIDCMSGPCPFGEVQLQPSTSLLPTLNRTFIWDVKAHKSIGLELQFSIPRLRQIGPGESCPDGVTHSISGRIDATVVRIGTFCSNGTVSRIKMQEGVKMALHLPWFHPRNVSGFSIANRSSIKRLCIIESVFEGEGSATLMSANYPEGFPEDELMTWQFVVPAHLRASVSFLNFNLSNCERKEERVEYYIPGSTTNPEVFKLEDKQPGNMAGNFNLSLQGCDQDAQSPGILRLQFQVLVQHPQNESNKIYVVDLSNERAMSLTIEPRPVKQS
The experiment in a line: flow cytometry competition: CUB1-His (NTF) titrated against 100, 50 or 0 nM IgG CL03 on cleaved CDCP1 positive cells. The method, then: To further evaluate the recognition of cleaved CDCP1 on cancer cells by CL03, a competition assay was performed to evaluate whether soluble CUB1 (NTF) could compete with the binding of CL03 on cleaved CDCP1 positive cells. […] Primary Ab (CL03 IgG) and different concentrations of CUB1 (NTF) were added to cells for 30 minutes at 4° C. Bound Abs were detected with addition of AlexaFluor-488 conjugated Goat anti-human IgG, F(ab′)2 fragment specific (Jackson ImmunoResearch: 1:1000). Cells were washed 3× with PBS+3% BSA and fluorescence was quantified using a CytoFLEX (Beckman Coulter) flow cytometer. All flow cytometry data analysis was performed using FlowJo software and Prism software (GraphPad).
In general terms: A flow cytometer gives signals particle by particle.

B1: CL03 IgG (antibody, V domains shown)
VH: EVQLVESGGGLVQPGGSLRLSCAASGFNFSSYSIHWVRQAPGKGLEWVASIYPYSGSTYYADSVKGRFTISADTSKNTAYLQMNSLRAEDTAVYYCARQSHSYYSHTWWVSYGMDYWGQGTLVTVSS
VL: DIQMTQSPSSLSASVGDRVTITCRASQSVSSAVAWYQQKPGKAPKLLIYSASSLYSGVPSRFSGSRSGTDFTLTISSLQPEDFATYYCQQSGQRPITFGQGTKVEIKR
notes: also called IgG CL03
In general, EC50 refers to the concentration that produces a half-maximal response. Low readings indicate a more potent agent, high ones a less potent agent. B1 displayed a concentration for a half-maximal effect (EC50) in assay [1] of 20.7 nM. Further, the binding result in assay [2] was “no binding (tested: not printed)”; in assay [3], “no binding (tested: about 800 nM)”.
